Results taken from publication PMC3764422, “A model of yeast glycolysis based on a consistent kinetic characterisation of all its enzymes” (Febs Letters, 2013).

How the values were obtained:
Experiment in all cases: purified protein
Type in all cases: biochemical, Saccharomyces cerevisiae
Conditions in all cases: standardised reaction buffer, 30 °C
purified protein [1] = substrate: O=C(O)[C@@H](CO)OP(=O)(O)O
purified protein [2] = substrate: O=C(O)[C@H](O)COP(=O)(O)O
purified protein [3] = substrate: Nc1ncnc2c1ncn2[C@@H]1O[C@H](COP(=O)(O)OP(=O)(O)OP(=O)(O)O)[C@@H](O)[C@H]1O
purified protein [4] = substrate: CC(=O)C(=O)O
purified protein [5] = substrate: O=C[C@H](O)COP(=O)(O)O
[6] = direction with ATP as co-substrate

B1: Eno1p (Saccharomyces cerevisiae S288C) (protein)
chain: AVSKVYARSVYDSRGNPTVEVELTTEKGVFRSIVPSGASTGVHEALEMRDGDKSKWMGKGVLHAVKNVNDVIAPAFVKANIDVKDQKAVDDFLISLDGTANKSKLGANAILGVSLAASRAAAAEKNVPLYKHLADLSKSKTSPYVLPVPFLNVLNGGSHAGGALALQEFMIAPTGAKTFAEALRIGSEVYHNLKSLTKKRYGASAGNVGDEGGVAPNIQTAEEALDLIVDAIKAAGHDGKIKIGLDCASSEFFKDGKYDLDFKNPNSDKSKWLTGPQLADLYHSLMKRYPIVSIEDPFAEDDWEAWSHFFKTAGIQIVADDLTVTNPKRIATAIEKKAADALLLKVNQIGTLSESIKAAQDSFAAGWGVMVSHRSGETEDTFIADLVVGLRTGQIKTGAPARSERLAKLNQLLRIEEELGDNAVFAGENFHHGDKL
notes: tagged full-length ORF, expressed in and purified from S. cerevisiae, assayed immediately after purification
Purified protein [1]
  Km: 0.043 (SEM 10%) mM
  kcat: 7.6 s⁻¹
Purified protein [2]; product PEP
  kcat: 5.07 s⁻¹

B2: Gpm1p (Saccharomyces cerevisiae S288C) (protein)
chain: PKLVLVRHGQSEWNEKNLFTGWVDVKLSAKGQQEAARAGELLKEKKVYPDVLYTSKLSRAIQTANIALEKADRLWIPVNRSWRLNERHYGDLQGKDKAETLKKFGEEKFNTYRRSFDVPPPPIDASSPFSQKGDERYKYVDPNVLPETESLALVIDRLLPYWQDVIAKDLLSGKTVMIAAHGNSLRGLVKHLEGISDADIAKLNIPTGIPLVFELDENLKPSKPSYYLDPEAAAAGAAAVANQGKK
notes: tagged full-length ORF, expressed in and purified from S. cerevisiae
Purified protein [1]; reverse reaction (P2G to P3G)
  Km: 1.41 mM
  kcat: 400 s⁻¹

B3: Glk1p (Saccharomyces cerevisiae S288C) (protein)
chain: SFDDLHKATERAVIQAVDQICDDFEVTPEKLDELTAYFIEQMEKGLAPPKEGHTLASDKGLPMIPAFVTGSPNGTERGVLLAADLGGTNFRICSVNLHGDHTFSMEQMKSKIPDDLLDDENVTSDDLFGFLARRTLAFMKKYHPDELAKGKDAKPMKLGFTFSYPVDQTSLNSGTLIRWTKGFRIADTVGKDVVQLYQEQLSAQGMPMIKVVALTNDTVGTYLSHCYTSDNTDSMTSGEISEPVIGCIFGTGTNGCYMEEINKITKLPQELRDKLIKEGKTHMIINVEWGSFDNELKHLPTTKYDVVIDQKLSTNPGFHLFEKRVSGMFLGEVLRNILVDLHSQGLLLQQYRSKEQLPRHLTTPFQLSSEVLSHIEIDDSTGLRETELSLLQSLRLPTTPTERVQIQKLVRAISRRSAYLAAVPLAAILIKTNALNKRYHGEVEIGCDGSVVEYYPGFRSMLRHALALSPLGAEGERKVHLKIAKDGSGVGAALCALVA
notes: tagged full-length ORF (mostly C-terminal tag, yeast ORF/GST/TAP collections), expressed in and purified from S. cerevisiae
Purified protein [3]
  Km: 865 µM
  kcat: 0.0721 s⁻¹

B4: Pdc1p (Saccharomyces cerevisiae S288C) (protein)
chain: SEITLGKYLFERLKQVNVNTVFGLPGDFNLSLLDKIYEVEGMRWAGNANELNAAYAADGYARIKGMSCIITTFGVGELSALNGIAGSYAEHVGVLHVVGVPSISAQAKQLLLHHTLGNGDFTVFHRMSANISETTAMITDIATAPAEIDRCIRTTYVTQRPVYLGLPANLVDLNVPAKLLQTPIDMSLKPNDAESEKEVIDTILALVKDAKNPVILADACCSRHDVKAETKKLIDLTQFPAFVTPMGKGSIDEQHPRYGGVYVGTLSKPEVKEAVESADLILSVGALLSDFNTGSFSYSYKTKNIVEFHSDHMKIRNATFPGVQMKFVLQKLLTTIADAAKGYKPVAVPARTPANAAVPASTPLKQEWMWNQLGNFLQEGDVVIAETGTSAFGINQTTFPNNTYGISQVLWGSIGFTTGATLGAAFAAEEIDPKKRVILFIGDGSLQLTVQEISTMIRWGLKPYLFVLNNDGYTIEKLIHGPKAQYNEIQGWDHLSLLPTFGAKDYETHRVATTGEWDKLTQDKSFNDNSKIRMIEIMLPVFDAPQNLVEQAKLTAATNAKQ
notes: tagged full-length ORF, expressed in and purified from S. cerevisiae, assayed freshly purified
Purified protein [4]
  Km: 8.5 (SEM 10%) mM
  kcat: 12.1 s⁻¹

B5: Pdc5p (Saccharomyces cerevisiae S288C) (protein)
chain: MSEITLGKYLFERLSQVNCNTVFGLPGDFNLSLLDKLYEVKGMRWAGNANELNAAYAADGYARIKGMSCIITTFGVGELSALNGIAGSYAEHVGVLHVVGVPSISSQAKQLLLHHTLGNGDFTVFHRMSANISETTAMITDIANAPAEIDRCIRTTYTTQRPVYLGLPANLVDLNVPAKLLETPIDLSLKPNDAEAEAEVVRTVVELIKDAKNPVILADACASRHDVKAETKKLMDLTQFPVYVTPMGKGAIDEQHPRYGGVYVGTLSRPEVKKAVESADLILSIGALLSDFNTGSFSYSYKTKNIVEFHSDHIKIRNATFPGVQMKFALQKLLDAIPEVVKDYKPVAVPARVPITKSTPANTPMKQEWMWNHLGNFLREGDIVIAETGTSAFGINQTTFPTDVYAIVQVLWGSIGFTVGALLGATMAAEELDPKKRVILFIGDGSLQLTVQEISTMIRWGLKPYIFVLNNNGYTIEKLIHGPHAEYNEIQGWDHLALLPTFGARNYETHRVATTGEWEKLTQDKDFQDNSKIRMIEVMLPVFDAPQNLVKQAQLTAATNAKQ
notes: as for B4
Purified protein [4]
  Km: 7.08 (SEM 5.7%) mM
  kcat: 10.3 s⁻¹

B6: Pdc6p (Saccharomyces cerevisiae S288C) (protein)
chain: SEITLGKYLFERLKQVNVNTIFGLPGDFNLSLLDKIYEVDGLRWAGNANELNAAYAADGYARIKGLSVLVTTFGVGELSALNGIAGSYAEHVGVLHVVGVPSISAQAKQLLLHHTLGNGDFTVFHRMSANISETTSMITDIATAPSEIDRLIRTTFITQRPSYLGLPANLVDLKVPGSLLEKPIDLSLKPNDPEAEKEVIDTVLELIQNSKNPVILSDACASRHNVKKETQKLIDLTQFPAFVTPLGKGSIDEQHPRYGGVYVGTLSKQDVKQAVESADLILSVGALLSDFNTGSFSYSYKTKNVVEFHSDYVKVKNATFLGVQMKFALQNLLKVIPDVVKGYKSVPVPTKTPANKGVPASTPLKQEWLWNELSKFLQEGDVIISETGTSAFGINQTIFPKDAYGISQVLWGSIGFTTGATLGAAFAAEEIDPNKRVILFIGDGSLQLTVQEISTMIRWGLKPYLFVLNNDGYTIEKLIHGPHAEYNEIQTWDHLALLPAFGAKKYENHKIATTGEWDALTTDSEFQKNSVIRLIELKLPVFDAPESLIKQAQLTAATNAKQ
notes: as for B4
Purified protein [4]
  Km: 2.92 mM
  kcat: 9.21 s⁻¹

B7: Pgk1p (Saccharomyces cerevisiae S288C) (protein)
chain: SLSSKLSVQDLDLKDKRVFIRVDFNVPLDGKKITSNQRIVAALPTIKYVLEHHPRYVVLASHLGRPNGERNEKYSLAPVAKELQSLLGKDVTFLNDCVGPEVEAAVKASAPGSVILLENLRYHIEEEGSRKVDGQKVKASKEDVQKFRHELSSLADVYINDAFGTAHRAHSSMVGFDLPQRAAGFLLEKELKYFGKALENPTRPFLAILGGAKVADKIQLIDNLLDKVDSIIIGGGMAFTFKKVLENTEIGDSIFDKAGAEIVPKLMEKAKAKGVEVVLPVDFIIADAFSADANTKTVTDKEGIPAGWQGLDNGPESRKLFAATVAKAKTIVWNGPPGVFEFEKFAAGTKALLDEVVKSSAAGNTVIIGGGDTATVAKKYGVTDKISHVSTGGGASLELLEGKELPGVAFLSEKK
notes: as for B2
Purified protein [2]; [6]
  Km: 4580 µM
  kcat: 58.6 s⁻¹

B8: Tdh1p (Saccharomyces cerevisiae S288C) (protein)
chain: MIRIAINGFGRIGRLVLRLALQRKDIEVVAVNDPFISNDYAAYMVKYDSTHGRYKGTVSHDDKHIIIDGVKIATYQERDPANLPWGSLKIDVAVDSTGVFKELDTAQKHIDAGAKKVVITAPSSSAPMFVVGVNHTKYTPDKKIVSNASCTTNCLAPLAKVINDAFGIEEGLMTTVHSMTATQKTVDGPSHKDWRGGRTASGNIIPSSTGAAKAVGKVLPELQGKLTGMAFRVPTVDVSVVDLTVKLEKEATYDQIKKAVKAAAEGPMKGVLGYTEDAVVSSDFLGDTHASIFDASAGIQLSPKFVKLISWYDNEYGYSARVVDLIEYVAKA
notes: as for B2
Purified protein [5]
  Km: 0.495 (SEM 7.5%) mM
  kcat: 19.1 s⁻¹

B9: Tdh2p (Saccharomyces cerevisiae S288C) (protein)
chain: VRVAINGFGRIGRLVMRIALQRKNVEVVALNDPFISNDYSAYMFKYDSTHGRYAGEVSHDDKHIIVDGHKIATFQERDPANLPWASLNIDIAIDSTGVFKELDTAQKHIDAGAKKVVITAPSSTAPMFVMGVNEEKYTSDLKIVSNASCTTNCLAPLAKVINDAFGIEEGLMTTVHSMTATQKTVDGPSHKDWRGGRTASGNIIPSSTGAAKAVGKVLPELQGKLTGMAFRVPTVDVSVVDLTVKLNKETTYDEIKKVVKAAAEGKLKGVLGYTEDAVVSSDFLGDSNSSIFDAAAGIQLSPKFVKLVSWYDNEYGYSTRVVDLVEHVAKA
notes: as for B2
Purified protein [5]
  Km: 0.77 mM
  kcat: 8.63 s⁻¹

B10: Tdh3p (Saccharomyces cerevisiae S288C) (protein)
chain: VRVAINGFGRIGRLVMRIALSRPNVEVVALNDPFITNDYAAYMFKYDSTHGRYAGEVSHDDKHIIVDGKKIATYQERDPANLPWGSSNVDIAIDSTGVFKELDTAQKHIDAGAKKVVITAPSSTAPMFVMGVNEEKYTSDLKIVSNASCTTNCLAPLAKVINDAFGIEEGLMTTVHSLTATQKTVDGPSHKDWRGGRTASGNIIPSSTGAAKAVGKVLPELQGKLTGMAFRVPTVDVSVVDLTVKLNKETTYDEIKKVVKAAAEGKLKGVLGYTEDAVVSSDFLGDSHSSIFDASAGIQLSPKFVKLVSWYDNEYGYSTRVVDLVEHVAKA
notes: as for B2
Purified protein [5]
  Km: 0.423 (SEM 9.2%) mM
  kcat: 18.2 s⁻¹

B11: Eno2p (Saccharomyces cerevisiae S288C) (protein)
chain: MAVSKVYARSVYDSRGNPTVEVELTTEKGVFRSIVPSGASTGVHEALEMRDEDKSKWMGKGVMNAVNNVNNVIAAAFVKANLDVKDQKAVDDFLLSLDGTANKSKLGANAILGVSMAAARAAAAEKNVPLYQHLADLSKSKTSPYVLPVPFLNVLNGGSHAGGALALQEFMIAPTGAKTFAEAMRIGSEVYHNLKSLTKKRYGASAGNVGDEGGVAPNIQTAEEALDLIVDAIKAAGHDGKVKIGLDCASSEFFKDGKYDLDFKNPESDKSKWLTGVELADMYHSLMKRYPIVSIEDPFAEDDWEAWSHFFKTAGIQIVADDLTVTNPARIATAIEKKAADALLLKVNQIGTLSESIKAAQDSFAANWGVMVSHRSGETEDTFIADLVVGLRTGQIKTGAPARSERLAKLNQLLRIEEELGDKAVYAGENFHHGDKL
notes: N-terminally tagged full-length ORF, expressed in and purified from S. cerevisiae, assayed fresh
Purified protein [1]
  Km: 0.104 mM
  kcat: 19.9 s⁻¹
